{"source": "paper doi:10.1101/2023.01.03.522599", "about": "“Crystal structure of a mammalian CMTM6 and its interaction model with PD-L1” (bioRxiv, 2023)", "biological_target": "T1, human PD-L1, BRIL fused to the C-terminus, C-terminally His-tagged (human, UniProt Q9NZQ7 19-290)", "T1 construct": "PD-L1, human; probably ED, TMD and CD together; also called hPD-L1; source: purified; not shown: BRIL, C-terminal, kept; His-tag, C-terminal, kept", "T1 sequence (Q9NZQ7 19-290)": "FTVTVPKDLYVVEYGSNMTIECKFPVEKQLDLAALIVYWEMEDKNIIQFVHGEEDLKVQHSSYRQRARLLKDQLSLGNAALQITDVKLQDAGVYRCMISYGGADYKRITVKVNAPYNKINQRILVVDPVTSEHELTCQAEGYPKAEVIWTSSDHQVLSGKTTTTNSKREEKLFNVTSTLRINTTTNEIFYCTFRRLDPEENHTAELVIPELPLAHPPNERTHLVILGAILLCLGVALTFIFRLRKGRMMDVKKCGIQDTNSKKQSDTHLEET", "experiment": "pull-down; purified C-terminally His-tagged hPD-L1 variants (BRIL fused) used to pull down purified His-tag free bCMTM6 variants (BRIL fused); examined by SDS-PAGE", "settings": "both partners purified", "data": [{"binder": "bovine CMTM6 protein (CKLF-like MARVEL transmembrane domain-containing protein 6), BRIL fused to the C-terminus (natural protein, UniProt Q3ZBE8 1-182, looked up, CMTM6, bovine; the crystal structure holds residues 33-165, and 32 amino-terminal and 17 carboxy-terminal residues were not modeled; Whether BRIL was on the crystallized sample is not clear from 'bCMTM6(-BRIL)'; also called bCMTM6; bCMTM6(-BRIL); source: purified (size-exclusion column); not shown: BRIL, C-terminal, kept) MENGQVYRATTEAHPGPGIGPRSGLAAYFTLSRLTGFRRLKLLELVLSLLAFICEEVVSQCTLCGGLYFFEFVSCSAFLLSLLILVVYCTPVYDRVDPAKVKSSDFFITLGTGLVFFVASLTFTLTHDNTIAEIAAIVFGMLASLTYLAEFSFMLREKLKEPRPRKGEATMRREHLTEPLNA", "values": [{"measurement": "binding result", "result": "binds"}]}]}
